In patent US20140227255A1 (Hoffmann-La Roche, published 2014):

Target: T1, Soluble human HER3 extracellular domain fused to Streptavidin Binding Protein (SBP) (human, UniProt P21860 20-643)
T1 construct: Order of the parts follows the printed name SBP-HER3 and is not otherwise stated; Used as HEK293 supernatant captured on streptavidin plates; also called SBP-HER3
Experiment: ELISA, SBP-HER3 ECD captured on streptavidin plate; antibody concentration read from HER3 binding
Experimental: Soluble human HER3 extracellular domain fused to Streptavidin Binding Protein (SBP) was captured on a sreptavidine plate. […] For the standard coating, SBP-HER3 containing HEK293 supernatant was diluted (between 1:15 and 1:40) and incubated overnight at 2-80 C (25 μl per well). Intensive washing of the microtiter plate is necessary to remove remaining unbound SBP-HER3.
Antibodies according to the invention antibody were tested either undiluted or using a 12-step-dilution. 12.5 μl per well of each sample was incubated for 90 min at room temperature.

Row | hu_HER3-ECD-ELISA c(µg/ml) [µg/mL] | Binder
1 | 583 | Mab 205.10.1 (antibody, V domains shown, Humanized anti-HER3 antibody; Only variable domains are tied to it) VH: QVQLVQSGAEVKKPGASVKVSCKASGYTFRSSYISWVRQAPGQGLEWMGWIYAGTGSPSYNQKLQGRVTMTTDTSTSTAYMELRSLRSDDTAVYYCARHRDYYSNSLTYWGQGTLVTVSS VL: DIVMTQSPDSLAVSLGERATINCKSSQSLLNSGNQKNYLTWYQQKPGQPPKLLIYWASTRESGVPDRFSGSGSGTDFTLTISSLQAEDVAVYYCQSDYSYPYTFGQGTKLEIK
2 | 505 | Mab 205.10.3 (antibody, V domains shown, Humanized anti-HER3 antibody; Only variable domains are tied to it) VH: QVQLVQSGAEVKKPGASVKVSCKASGYTFRSSYISWVRQAPGQGLEWMGWIYAGTGSPSYNQKLQGRVTMTTDTSTSTAYMELRSLRSDDTAVYYCARHRDYYSNSLTYWGQGTLVTVSS VL: DIVMTQSPDSLAVSLGERATINCKSSQSLLNSGNQKNYLTWYQQKPGQPPKLLIYWASTRESGVPDRFSGSGSGTDFTLTISSLQAEDVSIYYCQSDYSYPYTFGQGTKLEIK
